# Patent US20200299408A1 (Genentech, published 2020)
# “And” between values parts separate entries of the source, which are not always exact repeats. Equal entries are not always repeated.
# T1: single chain human CD3ε-26mer-CD3γ (CD3εγ) (human)
# T1 construct: also called human CD3εγ
# T1 chain: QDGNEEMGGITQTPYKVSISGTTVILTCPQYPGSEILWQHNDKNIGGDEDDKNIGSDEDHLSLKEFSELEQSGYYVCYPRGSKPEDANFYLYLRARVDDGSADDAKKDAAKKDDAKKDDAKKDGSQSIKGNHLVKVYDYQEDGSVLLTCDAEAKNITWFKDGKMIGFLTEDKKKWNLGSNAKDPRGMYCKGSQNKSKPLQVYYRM
# Tests used:
# [1] = molecular target: T1, single chain human CD3ε-26mer-CD3γ …; test: Biacore single cycle kinetics: Fab captured by anti-human Fab, human CD3εγ injected (3-250 nM)
# Source text: In addition, position 95 in HVR-H3 was also mutated to serine, threonine, or glutamate. Variants with these single point mutations were expressed as Fabs in HEK293 cells and initially screened with a single cycle kinetics method on a Biacore T100. Selected variants were also scaled up and purified for a conventional multi-cycle kinetics method. For single cycle kinetics, Biacore Series S CM5 sensor chips were immobilized with anti-human Fab antibodies (Human Fab capture kit, GE Healthcare). […] For conventional multi-cycle kinetics, human CD3εγ, cyno CD3εγ, or a 27-mer peptide were immobilized on Biacore Series S CM5 sensor chip using the amine coupling kit from Biacore. Serial 3-fold dilutions of each Fab variant were injected at a flow rate of 30 μl/min. Each sample was analyzed with a protocol of 3-minute association and 3-minute dissociation. In both methods, the Biacore chips were regenerated using 10 mM Glycine (pH 1.7). Binding response was corrected by blank subtraction and a 1:1Languir model of simultaneous fitting of kₒₙ and koff was used for kinetics analysis.
# [2] = molecular target: T1, single chain human CD3ε-26mer-CD3γ …; test: Biacore, human CD3εγ on chip, TDB in flow through
# Method: (§1) Binding affinities for the each of the CD3/CD20 TDBs were tested by Biacore or FACS analysis, as described above for the anti-CD3 antibodies. Briefly, for Biacore binding assays, human CD3εγ was immobilized on Biacore Series S CM5 sensor chip using the amine coupling kit from Biacore and CD3/CD20 TDBs or Fab variants thereof were in the flow through. For FACS binding assays, either Bjab cells (for B cell antigens) or Jurkat cells (for CD3 antigen) were incubated with various concentrations of TDB antibodies at 4° C. for 30 minutes, then cells were washed and incubated with 2nd antibody (anti-huIgG-PE; BD Bioscience) for another 15 minutes, before cells were washed again and ready for FACS analysis.
# human CD3 on T cells = molecular target: T2, human CD3 on T cells (human, UniProt P07766 22-207); test: FACS on Jurkat cells (CD3); EC50 table for the curves of FIGS. 21A-21B; source CHO (N297G)
# T2 construct: whole, on cells; On cells CD3ε stands in the CD3/TCR complex; also called CD3 antigen; CD3ε
# Method: as §1
# [3] = molecular target: CD3 antigen of Figures 3B and 3C (not named); test: kinetic table of IgGs; method and antigen not stated
Kd [2],koff [2] [s⁻¹],kon [2] [M⁻¹ s⁻¹],EC50 (human CD3 on T cells),Kd [3] [nM],koff [3] [s⁻¹],kon [3] [M⁻¹ s⁻¹],Binder,binding result [1]
,,,,,,,"hu38E4.v1 H3 mutant F100bA (Fab, V domains shown, copies: 1 + 1) VH: EVQLVQSGAEVKKPGASVKVSCKASGFTFTSYYIHWVRQAPGQGLEWIGWIYPENDNTKYNEKFKDRVTITADTSTSTAYLELSSLRSEDTAVYYCARDGYSRYYADYWGQGTLVTVSS VL: DIVMTQSPDSLAVSLGERATINCKSSQSLLNSRTRKNYLAWYQQKPGQSPKLLIYWTSTRKSGVPDRFSGSGSGTDFTLTISSLQAEDVAVYYCKQSFILRTFGQGTKVEIK",no binding (tested: 250 nM CD3εγ (p-1386; not on the sheet))
137 nM and 136 nM,0.0984,721000,3.51 µg/mL and ~23 nM,,,,"38E4v4 CHO (bispecific antibody, also called CD3/CD20 TDB 2H7v16/38E4v4) anti-CD20 arm heavy chain: EVQLVESGGGLVQPGGSLRLSCAASGYTFTSYNMHWVRQAPGKGLEWVGAIYPGNGDTSYNQKFKGRFTISVDKSKNTLYLQMNSLRAEDTAVYYCARVVYYSNSYWYFDVWGQGTLVTVSS anti-CD20 arm light chain: DIQMTQSPSSLSASVGDRVTITCRASSSVSYMHWYQQKPGKAPKPLIYAPSNLASGVPSRFSGSGSGTDFTLTISSLQPEDFATYYCQQWSFNPPTFGQGTKVEIK anti-CD3 arm heavy chain: EVQLVQSGAEVKKPGASVKVSCKASGFTFTSYYIHWVRQAPGQGLEWIGWIYPENDNTKYNEKFKDRVTITADTSTSTAYLELSSLRSEDTAVYYCARDGYSRYYFDYWGQGTLVTVSS anti-CD3 arm light chain: DIVMTQSPDSLAVSLGERATINCKSSQSLLNSRTRKNYLAWYQQKPGQSPKLLIYWTSTRKSGVPDRFSGSGSGTDFTLTISSLQAEDVAVYYCKASFILRTFGQGTKVEIK",
16 nM,0.0515,3.22e+06,4.11 µg/mL and ~27 nM,,,,"38E4v5 CHO (bispecific antibody, also called CD3/CD20 TDB 2H7v16/38E4v5) anti-CD20 arm heavy chain: EVQLVESGGGLVQPGGSLRLSCAASGYTFTSYNMHWVRQAPGKGLEWVGAIYPGNGDTSYNQKFKGRFTISVDKSKNTLYLQMNSLRAEDTAVYYCARVVYYSNSYWYFDVWGQGTLVTVSS anti-CD20 arm light chain: DIQMTQSPSSLSASVGDRVTITCRASSSVSYMHWYQQKPGKAPKPLIYAPSNLASGVPSRFSGSGSGTDFTLTISSLQPEDFATYYCQQWSFNPPTFGQGTKVEIK anti-CD3 arm heavy chain: EVQLVQSGAEVKKPGASVKVSCKASGFTFTSYYIHWVRQAPGQGLEWIGWIYPENDNTKYNEKFKDRVTITADTSTSTAYLELSSLRSEDTAVYYCARDGYSRYYFDYWGQGTLVTVSS anti-CD3 arm light chain: DIVMTQSPDSLAVSLGERATINCKSSQSLLNSRTRKNYLAWYQQKPGQSPKLLIYWTSTRKSGVPDRFSGSGSGTDFTLTISSLQAEDVAVYYCKQSAILRTFGQGTKVEIK",
2.43 nM and 2.4 nM,0.00513,2.11e+06,0.52 µg/mL and ~3.4 nM,,,,"38E4v2 CHO (bispecific antibody, also called CD3/CD20 TDB 2H7v16/38E4v2) anti-CD20 arm heavy chain: EVQLVESGGGLVQPGGSLRLSCAASGYTFTSYNMHWVRQAPGKGLEWVGAIYPGNGDTSYNQKFKGRFTISVDKSKNTLYLQMNSLRAEDTAVYYCARVVYYSNSYWYFDVWGQGTLVTVSS anti-CD20 arm light chain: DIQMTQSPSSLSASVGDRVTITCRASSSVSYMHWYQQKPGKAPKPLIYAPSNLASGVPSRFSGSGSGTDFTLTISSLQPEDFATYYCQQWSFNPPTFGQGTKVEIK anti-CD3 arm heavy chain: EVQLVQSGAEVKKPGASVKVSCKASGFTFTSYYIHWVRQAPGQGLEWIGWIYPENDNTKYNEKFKDRVTITADTSTSTAYLELSSLRSEDTAVYYCARDAYSRYYFDYWGQGTLVTVSS anti-CD3 arm light chain: DIVMTQSPDSLAVSLGERATINCKSSQSLLNSRTRKNYLAWYQQKPGQSPKLLIYWTSTRKSGVPDRFSGSGSGTDFTLTISSLQAEDVAVYYCKQSFILRTFGQGTKVEIK",
,,,,,,,"hu38E4.v1 H3 mutant Y97A (Fab, V domains shown, copies: 1 + 1) VH: EVQLVQSGAEVKKPGASVKVSCKASGFTFTSYYIHWVRQAPGQGLEWIGWIYPENDNTKYNEKFKDRVTITADTSTSTAYLELSSLRSEDTAVYYCARDGASRYYFDYWGQGTLVTVSS VL: DIVMTQSPDSLAVSLGERATINCKSSQSLLNSRTRKNYLAWYQQKPGQSPKLLIYWTSTRKSGVPDRFSGSGSGTDFTLTISSLQAEDVAVYYCKQSFILRTFGQGTKVEIK",no binding (tested: 250 nM CD3εγ (p-1386; not on the sheet))
,,,,,,,"hu38E4.v1 H3 mutant R99A (Fab, V domains shown, copies: 1 + 1) VH: EVQLVQSGAEVKKPGASVKVSCKASGFTFTSYYIHWVRQAPGQGLEWIGWIYPENDNTKYNEKFKDRVTITADTSTSTAYLELSSLRSEDTAVYYCARDGYSAYYFDYWGQGTLVTVSS VL: DIVMTQSPDSLAVSLGERATINCKSSQSLLNSRTRKNYLAWYQQKPGQSPKLLIYWTSTRKSGVPDRFSGSGSGTDFTLTISSLQAEDVAVYYCKQSFILRTFGQGTKVEIK",no binding (tested: 250 nM CD3εγ (p-1386; not on the sheet))
3.21 nM and 3.2 nM,0.016,4.98e+06,0.29 µg/mL and ~1.9 nM,,,,"38E4v3 CHO (bispecific antibody, also called CD3/CD20 TDB 2H7v16/38E4v3) anti-CD20 arm heavy chain: EVQLVESGGGLVQPGGSLRLSCAASGYTFTSYNMHWVRQAPGKGLEWVGAIYPGNGDTSYNQKFKGRFTISVDKSKNTLYLQMNSLRAEDTAVYYCARVVYYSNSYWYFDVWGQGTLVTVSS anti-CD20 arm light chain: DIQMTQSPSSLSASVGDRVTITCRASSSVSYMHWYQQKPGKAPKPLIYAPSNLASGVPSRFSGSGSGTDFTLTISSLQPEDFATYYCQQWSFNPPTFGQGTKVEIK anti-CD3 arm heavy chain: EVQLVQSGAEVKKPGASVKVSCKASGFTFTSYYIHWVRQAPGQGLEWIGWIYPENDNTKYNEKFKDRVTITADTSTSTAYLELSSLRSEDTAVYYCARDGYSRYYFDYWGQGTLVTVSS anti-CD3 arm light chain: DIVMTQSPDSLAVSLGERATINCKSSQSLLNSRTRKNYLAWYQQKPGQSPKLLIYWTSTRKSGVPDRFSGSGSGTDFTLTISSLQAEDVAVYYCKQSFALRTFGQGTKVEIK",
,,,,0.224,3.41e-05,152000,"79B7 (antibody, IgG3, V domains shown, mouse hybridoma clone) VH: QVQLQQSGSELVRPGASLKLSCKASGYTFTSYWMHWVRQRPGQGLEWIGNSYPGDLNVNYDEKFKNKVTLAVDTSSSTAFLQLSSLTSEDSAVYYCTRDAYSRYFFDYWGQGTTLTVSS VL: DIVMTQSPSSLAVSAGEKVTMSCKSSQSLLNSRTRKNYLAWYQQKPGQSPKLLIYWASTRESGVPDRFTGSGSGTDFTLTISSVQTEDLAVYYCCQSFILRTFGGGTKLEIK",
,,,,0.209,3.74e-05,179000,"118G9 (antibody, IgG3, V domains shown, mouse hybridoma clone) VH: QVQLQQPGSELVRPGASVTLSCTASGYSFTSYWMHWVKQRPGQGLEWVGNIYPGGEIINYAEKFKTKGTLTVDISSSTAYMHLSSLTSDDSAVYYCTRDTTGNYFFDYWGQGTTLTVSS VL: DIVMTQSPSSLAVSAGEKVTMSCKSSQSLLNSRTRKNYLAWYQQKPGLSPKLLIYWASTRESGVPERFTGSGSGTDFTLTISSVQTEDLAVYYCTQSFILRTFGGGTRLEIK",
,,,,0.331,7.31e-05,220000,"39B7 (antibody, IgG2b, V domains shown, mouse hybridoma clone) VH: QVQLQQSGPELVKPGTSVKISCKTSGYNFINYYTHWVKQRPGQGLEWIGWIYPGNGNIKYNEKFMGKATLTADTSSTTAHMHLSSLVSEDSAVYYCARDSYGSYYFDYWGQGTTLTVSS VL: DIVMTQSPSSLAVSAGEKVTMTCKSSQSLLNSRTRKNYLAWYQQKPGQSPKLLIYWASTRESGVPDRFTGSGSGTDFTLTISSVQAEDLAVYYCKQSFILRTFGGGTKLEIK",
,,,,0.563,0.000111,197000,"40D2 (antibody, IgG2b, V domains shown, mouse hybridoma clone) VH: QVQLQQSGPELVKPGASLKISCKASGYSFANYYTHWVRQRPGQGLEWIGWLYPGNGDTRYNEKFKDKATLTADTSSNTASMQLNSLTSEDSAVYYCTRDSYGNYFFDYWGQGTTLIVSS VL: DIVMTQSPSSLAVSAGEKVTMSCKSSQSLLNSRTRKNYLAWYQQKPGQSPKLLIFWASTRESGVPDRFTGSGSGTDFTLTISSVQAEDLAVYYCKQSFILRTFGGGTKLELK",
,,,,0.0644,1.87e-05,290000,"95A2 (antibody, IgG3, V domains shown, mouse hybridoma clone) VH: QVQLQQSGPEMVKPGASVTISCKTSGFTFTSYYIHWMMQRPGQGLEWIGWLYPGDVSTRYNEKFRDKATLTADKSSTTAYLYLSSLTSEDSAVYFCARDSSASYYFDFWGQGTTLTVSS VL: DIVMTQSPSSLAVSAGEMVTLHCKSSQSLLNIRTRKNYLAWYLQKPGQSPRLLIYWASTRASGVPDRFTGSGSGTDFTLTISSVQPEDLAVYYCTQSFILRTFGGGTKLELK",
